For assay [1], the target named is GAS41 YEATS domain (residues 11–150) (human, UniProt O95619 11-150). Briefly: ITC. (In general: ITC needs no label: the signal is the heat of the interaction.)
In assay [2] the target is GFP-GAS41 H43S protein (recombinant) (human, UniProt O95619 1-227, H43S). The experiment in a line: MST.

Ends that are not written are not given here. * marks the point of attachment. Crotonyl(E) = C/C=C/C(=O)*

GAS41 YEATS domain (residues 11–150), sequence (O95619 11-150): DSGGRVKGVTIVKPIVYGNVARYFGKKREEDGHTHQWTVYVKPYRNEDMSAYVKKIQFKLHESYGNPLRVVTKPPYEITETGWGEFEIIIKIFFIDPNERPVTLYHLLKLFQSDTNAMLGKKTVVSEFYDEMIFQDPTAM
GFP-GAS41 H43S protein (recombinant), sequence (O95619 whole entry H43S): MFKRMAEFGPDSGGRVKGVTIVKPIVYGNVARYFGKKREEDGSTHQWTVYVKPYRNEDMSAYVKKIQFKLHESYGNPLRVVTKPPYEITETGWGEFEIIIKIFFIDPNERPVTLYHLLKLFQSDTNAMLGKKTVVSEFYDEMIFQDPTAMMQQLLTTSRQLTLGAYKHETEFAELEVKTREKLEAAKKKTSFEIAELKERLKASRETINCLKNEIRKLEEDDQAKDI

For the molecule ATKAARK(Crotonyl(E))SAPATG [Synthesized H3 K27cr (a.a. 21-33) peptide], the Kd (usually a measure of binding affinity in units of concentration) in assay [1] was determined as 22.9 µM. In assay [2], the “fold reduction in binding against GAS41 wt” value worked out at 6 fold.

Consider ATKAARK(Ac)SAPATG [Synthesized H3 K27ac (a.a. 21-33) peptide], for which the Kd in assay [1] came out at 51.5 µM. Also, the “fold reduction in binding against GAS41 wt” value in assay [2] is roughly 2 fold.
